Patent WO2011095545A1 (dated 2011)

B1: EXPGMP 80B10 (as a fusion with the Nanobody 2D3) (other)
chain: EVQLVESGGSLVQPGGSLRLSCAASGFTFDDYAMSWVRQVPGKGLEWVSSINWSGTHTDYADSVKGRFTISRNNANNTLYLQMNSLKSEDTAVYYCAKNWRDAGTTWFEKSGSAGQGTQVTVSSGGGGSGGGSYWWERRDWDFDVFGGGTPAAAEQKLISEEDLNGAAHHHHHH
notes: Nanobody-peptide fusion, expressed in E. coli, purified by IMAC/SEC; also called 2D3-9GS-EXP80B10
B2: 5F7-9GS-EXP89D03-9GS-EXP89D03 (other)
chain: EVQLVESGGGLVQAGGSLRLSCAASGITFSINTMGWYRQAPGKQRELVALISSIGDTYYADSVKGRFTISRDNAKNTVYLQMNSLKPEDTAVYYCKRFRTAAQGTDYWGQGTQVTVSSGGGGSGGGSWWEQDRDWDFDVFGGGTPGGGGSGGGSWWEQDRDWDFDVFGGGTP
notes: Fusion of Nanobody 5F7 with a tandem repeat of peptide 89D03; also called EXP486

Columns and labels:
[1] = target: T1, human serum albumin (human, UniProt P02768 25-609); assay: SPR (BIAcore 3000), HSA on CM5 chip, 2D3-peptide fusion injected
T1 construct: Bought protein (Sigma, 99% pure); also called HSA
T1 sequence (P02768 25-609 limits assumed): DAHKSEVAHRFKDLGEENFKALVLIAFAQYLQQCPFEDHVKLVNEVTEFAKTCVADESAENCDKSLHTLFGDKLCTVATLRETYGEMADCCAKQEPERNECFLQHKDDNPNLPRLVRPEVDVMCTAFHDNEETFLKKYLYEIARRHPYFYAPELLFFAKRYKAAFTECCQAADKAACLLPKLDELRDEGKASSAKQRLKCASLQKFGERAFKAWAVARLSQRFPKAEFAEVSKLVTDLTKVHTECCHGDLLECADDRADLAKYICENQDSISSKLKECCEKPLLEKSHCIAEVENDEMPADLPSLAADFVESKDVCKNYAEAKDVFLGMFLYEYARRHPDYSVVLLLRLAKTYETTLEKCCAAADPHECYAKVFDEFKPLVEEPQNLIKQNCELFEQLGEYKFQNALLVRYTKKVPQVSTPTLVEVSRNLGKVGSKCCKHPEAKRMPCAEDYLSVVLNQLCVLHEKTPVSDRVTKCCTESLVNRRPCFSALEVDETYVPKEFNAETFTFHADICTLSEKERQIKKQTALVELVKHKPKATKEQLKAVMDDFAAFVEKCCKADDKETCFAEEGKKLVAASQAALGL

[2] = target: T2, cynomolgus serum albumin (cynomolgus monkey, UniProt A2V9Z4 25-608); assay: SPR (BIAcore 3000), 200 nM and 1 uM fusion injected on CM5 chip with ~900 RU cynomolgus serum albumin
T2 construct: also called cyno serum albumin
T2 sequence (A2V9Z4 25-608 limits assumed): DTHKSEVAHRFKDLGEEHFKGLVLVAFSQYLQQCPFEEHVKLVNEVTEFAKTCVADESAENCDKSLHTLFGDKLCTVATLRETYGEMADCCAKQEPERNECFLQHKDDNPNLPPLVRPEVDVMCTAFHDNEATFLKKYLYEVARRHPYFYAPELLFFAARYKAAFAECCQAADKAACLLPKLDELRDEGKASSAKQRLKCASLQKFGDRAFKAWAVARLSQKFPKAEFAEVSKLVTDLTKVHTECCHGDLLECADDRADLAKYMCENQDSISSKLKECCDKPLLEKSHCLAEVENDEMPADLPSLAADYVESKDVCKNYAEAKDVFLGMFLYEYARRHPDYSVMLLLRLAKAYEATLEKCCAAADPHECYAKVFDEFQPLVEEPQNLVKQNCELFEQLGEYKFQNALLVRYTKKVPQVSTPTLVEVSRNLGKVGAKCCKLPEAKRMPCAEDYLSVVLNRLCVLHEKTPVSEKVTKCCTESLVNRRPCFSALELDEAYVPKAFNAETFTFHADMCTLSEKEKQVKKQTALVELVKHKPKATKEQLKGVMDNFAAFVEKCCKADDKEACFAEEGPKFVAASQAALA

Binder | Kd [1] [nM] | binding result [2]
B1 | 16 | –
B2 | – | binds
